Here are results for one substance from patent publication US20230123187A1.

For the test, the target named is Apolipoprotein E receptor-2 (Apoer2) (human) (UniProt Q14114). Description: cell-based or functional assay.
Chain of UniProt Q14114 (Q14114 33-963): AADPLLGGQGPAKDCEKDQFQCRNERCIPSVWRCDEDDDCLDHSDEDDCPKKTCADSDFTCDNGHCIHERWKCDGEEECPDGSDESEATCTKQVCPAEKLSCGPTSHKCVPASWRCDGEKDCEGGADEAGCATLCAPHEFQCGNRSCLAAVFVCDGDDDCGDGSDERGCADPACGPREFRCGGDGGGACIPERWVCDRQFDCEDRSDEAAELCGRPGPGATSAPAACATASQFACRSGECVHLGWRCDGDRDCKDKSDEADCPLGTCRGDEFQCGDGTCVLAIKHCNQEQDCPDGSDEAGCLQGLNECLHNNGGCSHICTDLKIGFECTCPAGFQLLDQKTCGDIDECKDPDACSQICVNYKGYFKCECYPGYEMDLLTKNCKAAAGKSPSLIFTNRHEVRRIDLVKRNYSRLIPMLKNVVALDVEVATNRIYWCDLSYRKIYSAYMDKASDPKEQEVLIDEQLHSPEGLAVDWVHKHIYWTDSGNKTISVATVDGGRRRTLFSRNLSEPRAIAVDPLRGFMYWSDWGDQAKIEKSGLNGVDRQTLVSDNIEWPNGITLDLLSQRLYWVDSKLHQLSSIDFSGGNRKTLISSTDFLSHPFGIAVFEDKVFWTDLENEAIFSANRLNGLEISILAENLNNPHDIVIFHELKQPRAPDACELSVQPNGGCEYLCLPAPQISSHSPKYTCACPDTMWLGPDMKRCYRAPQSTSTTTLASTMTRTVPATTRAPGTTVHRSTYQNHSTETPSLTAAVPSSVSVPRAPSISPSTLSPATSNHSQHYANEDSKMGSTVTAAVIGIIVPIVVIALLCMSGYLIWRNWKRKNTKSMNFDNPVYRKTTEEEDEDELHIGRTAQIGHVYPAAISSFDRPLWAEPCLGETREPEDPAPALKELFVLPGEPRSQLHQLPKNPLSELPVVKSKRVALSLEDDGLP

For the substance Recombinant Reelin (ligand), the U937 monocyte adhesion to HAEC monolayers was over 2 fold.
